The text below walks through data of PMC6856630, “Structures of neurexophilin–neurexin complexes reveal a regulatory mechanism of alternative splicing” (The EMBO Journal, 2019).

One may read the Kd as the equilibrium constant for the complex coming apart. Lower therefore signals higher affinity. One may read the koff as the first-order rate constant of dissociation. Higher therefore signals fast dissociation. As usually defined, the kon is the rate constant with which the complex forms. In general, stoichiometry N refers to the number of molecules, sites or subunits per partner or assembly.

Substitutions are numbered along the chain they refer to. Names may count otherwise. “And” between values parts separate entries of the source, which are not always exact repeats. Equal values may be shown once.

B1: Nxph3-2XFLAG-His (rat neurexophilin-3, 50-252) (ligand, UniProt Q9Z2N5 50-252, looked up)
chain: RGHISPKSRPLANSTLLGLLAPPGEVWGILGQPPNRPKQSPLPSTKVKKIFGWGDFYSNIKTVALNLLVTGKIVDHGNGTFSVHFRHNATGQGNISISLVPPSKAVEFHQEQQIFIEAKASKIFNCRMEWEKVERGRRTSLCTHDPAKICSRDHAQSSATWSCSQPFKIVCVYIAFYSTDYRLVQKVCPDYNYHSDTPYYPSG
modifications: glycans (sites not given)
notes: Neurexophilin-3, rat, residues 50-252; Expressed with an Igκ signal peptide at the N-terminus; HRV 3C site before the tags, not cut; source: 293F cells, BacMam expression system, secreted; purification not described; not shown: 2xFLAG, C-terminal, kept; His6, C-terminal, kept
B2: Nrxn1 LNS2^SS2−, AviTag-His, biotinylated (BLI) (domain or fragment)
chain: not shown
modifications: biotin on the AviTag (BirA)
notes: numbers count on: UniProt Q9CS84-1 (isoform 1a); Igκ signal peptide at the N-terminus; source: 293F cells, transfected, secreted, purified (Ni-NTA, BirA biotinylation, Superdex Increase 200); not shown: AviTag, C-terminal, kept; His6, C-terminal, kept
B3: Nrxn1 LNS2^SS2− (I401Q), AviTag-His, biotinylated (BLI) (domain or fragment)
chain: not shown
modifications: biotin on the AviTag (BirA)
notes: as for B2
B4: Nxph1-2XFLAG-His (mature rat neurexophilin-1, 118-271, glycosylated) (ligand, UniProt Q63366 118-271, looked up)
chain: MFGWGDFHSNIKTVKLNLLITGKIVDHGNGTFSVYFRHNSTGQGNVSVSLVPPTKIVEFDLAQQTVIDAKDSKSFNCRIEYEKVDKATKNTLCNYDPSKTCYQEQTQSHVSWLCSKPFKVICIYISFYSTDYKLVQKVCPDYNYHSDTPYFPSG
modifications: N-linked glycans at N146, N156 and N162
notes: Neurexophilin-1, rat, mature form, residues 118-271; Expressed with an Igκ signal peptide at the N-terminus; HRV 3C site before the tags, not cut for the biochemical studies; source: 293F cells, BacMam expression system, secreted; purification of Nxph1 alone not described; not shown: 2xFLAG, C-terminal, kept; His6, C-terminal, kept
B5: Nxph1^3ND (mature rat neurexophilin-1, 118-271, N146D/N156D/N162D) (ligand, UniProt Q63366 118-271, looked up)
chain: B4 chain with N29D, N39D, N45D
notes: Neurexophilin-1, rat, mature form, residues 118-271, the three N-linked glycosylation sites mutated to aspartic acid; Expressed with an Igκ signal peptide at the N-terminus; tags removed with HRV 3C protease; also called Nxph1 (in the crystal structures); source: HEK293S GnTI- cells, BacMam, co-expressed with LNS2, complex purified (HisTrap, StrepTrap, 3C cleavage, Mono Q); not shown: 2xFLAG, …
B6: Nrxn3 LNS2^SS2A+, AviTag-His, biotinylated (BLI) (domain or fragment)
chain: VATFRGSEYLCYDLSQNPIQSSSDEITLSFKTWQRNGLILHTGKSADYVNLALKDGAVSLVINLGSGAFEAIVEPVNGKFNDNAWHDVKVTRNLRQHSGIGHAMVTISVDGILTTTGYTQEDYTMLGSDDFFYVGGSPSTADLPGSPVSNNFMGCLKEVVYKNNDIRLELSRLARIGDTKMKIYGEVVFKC
modifications: biotin on the AviTag (BirA)

Series [1] concerns the molecule itself. The experiment in a line: SEC-MALS; Superdex 200 10/300, 0.5 ml/min, PBS pH 7.4. On the technique in general: SEC sorts molecules by how far they enter the pores of the column.
Series [2] deals with B1. The experiment in a line: BLI; Octet RED384; biotinylated neurexin LNS2 on streptavidin tips, Nxph in solution; 25°C, PBS pH 7.4, 50 nM TCEP, 1% BSA; global fit, double reference subtraction. The following applies: both partners purified. For orientation: In BLI a coated tip is dipped into the sample, and binding shifts an interference pattern.
Series [3] concerns the molecule itself. The experiment in a line: SEC-MALS + other: SEC-SAXS; Nxph1 alone; SEC-MALS on Superdex 200 10/300 in PBS pH 7.4, SEC-SAXS on Superdex Increase 200 3.2/300.
Series [4] concerns the target B2. The experiment in a line: BLI; Octet RED384; biotinylated neurexin LNS2 on streptavidin tips, Nxph in solution; 25°C, PBS pH 7.4, 50 nM TCEP, 1% BSA; global fit, double reference subtraction. Conditions: both partners purified.
For series [5], the target named is B3. Described as above. Conditions: both partners purified.
For series [6], the target named is T1, Nrxn1 LNS2^SS2A+, AviTag-His, biotinylated (BLI) (mouse, UniProt Q9CS84-1 283-480, 283–386; 394–480, biotin on the AviTag (BirA)).
T1 construct: numbers count on: UniProt Q9CS84-1 (isoform 1a); Igκ signal peptide at the N-terminus; source: 293F cells, transfected, secreted, purified (Ni-NTA, BirA biotinylation, Superdex Increase 200); not shown: AviTag, C-terminal, kept; His6, C-terminal, kept
Described as above. The following applies: both partners purified.

Series [7] has as its target T2, Nrxn1 LNS2^SS2A+ (I401Q), AviTag-His, biotinylated (BLI) (mouse, UniProt Q9CS84-1 283-480, 283–386; 394–480 | I401Q, biotin on the AviTag (BirA)).
T2 construct: numbers count on: UniProt Q9CS84-1 (isoform 1a); Igκ signal peptide at the N-terminus; source: 293F cells, transfected, secreted, purified (Ni-NTA, BirA biotinylation, Superdex Increase 200); not shown: AviTag, C-terminal, kept; His6, C-terminal, kept
Described as above. Conditions: both partners purified.

The target in series [8] is T3, Nrxn1 LNS2^SS2− (C293A), crystallographic construct (mouse, UniProt Q9CS84-1 283-480, 283–378; 394–480 | C293A).
T3 construct: Neurexin-1 alpha, mouse, LNS2 domain without insert in splice site 2, residues 283-378 joined to 394-480; numbers count on: UniProt Q9CS84-1 (isoform 1a); Expressed with an Igκ signal peptide at the N-terminus; source: HEK293S GnTI- cells, BacMam, co-expressed with Nxph1^3ND, complex purified (HisTrap, StrepTrap, 3C cleavage, Mono Q); not shown: Twin-Strep, C-terminal, cleaved
The experiment in a line: SEC-MALS; Superdex 200 10/300, 0.5 ml/min, PBS pH 7.4. The following applies: both partners purified.

The target in series [9] is T4, Nrxn1 LNS2^SS2A+, crystallographic construct (mouse, UniProt Q9CS84-1 283-480, 283–386; 394–480).
T4 construct: Neurexin-1 alpha, mouse, LNS2 domain with the eight-residue SS2A insert (379-386), residues 283-386 joined to 394-480; numbers count on: UniProt Q9CS84-1 (isoform 1a); Expressed with an Igκ signal peptide at the N-terminus; not shown: Twin-Strep, C-terminal, cleaved
Described as above. Conditions: both partners purified.

The target of series [10] is B4. The experiment in a line: BLI; Octet RED384; biotinylated neurexin LNS2 on streptavidin tips, Nxph in solution; 25°C, PBS pH 7.4, 50 nM TCEP, 1% BSA; global fit, double reference subtraction. Conditions: both partners purified.

T2 sequence (Q9CS84 other isoform, or with tags, fused parts or gaps with the stated changes): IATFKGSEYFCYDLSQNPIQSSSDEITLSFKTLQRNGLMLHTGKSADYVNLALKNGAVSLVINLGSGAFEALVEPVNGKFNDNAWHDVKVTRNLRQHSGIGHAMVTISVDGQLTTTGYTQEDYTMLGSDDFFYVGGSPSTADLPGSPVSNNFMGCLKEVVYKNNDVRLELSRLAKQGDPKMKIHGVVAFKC
T1 sequence (Q9CS84 other isoform, or with tags, fused parts or gaps 283–386/394–480 | 283–386/394–480): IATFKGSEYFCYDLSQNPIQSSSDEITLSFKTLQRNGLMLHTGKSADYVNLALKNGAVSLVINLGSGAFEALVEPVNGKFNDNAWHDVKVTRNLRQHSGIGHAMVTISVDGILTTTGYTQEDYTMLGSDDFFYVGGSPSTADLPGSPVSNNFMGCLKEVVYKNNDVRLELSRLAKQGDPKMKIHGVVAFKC
T3 sequence (Q9CS84 other isoform, or with tags, fused parts or gaps with the stated changes): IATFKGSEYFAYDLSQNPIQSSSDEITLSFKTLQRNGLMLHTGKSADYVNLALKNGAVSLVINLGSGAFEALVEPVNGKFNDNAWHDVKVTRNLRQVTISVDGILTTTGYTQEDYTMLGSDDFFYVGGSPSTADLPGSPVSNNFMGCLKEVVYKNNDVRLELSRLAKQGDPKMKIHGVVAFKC
T4 sequence (Q9CS84 other isoform, or with tags, fused parts or gaps 283–386/394–480 | 283–386/394–480): as the sequence (Q9CS84 other isoform, or with tags, fused parts or gaps 283–386/394–480 | 283–386/394–480) above

B1: in series [1], the binding result is on record as “binds”.

Regarding B2, in [2], binding was put at a Kd of 260 nM, the koff came to 0.0001 s⁻¹ and the kon was determined as 209 M⁻¹ s⁻¹.

In [2], B3 returned a Kd of 3340 nM, a koff of 0.00064 s⁻¹ and a kon of 194 M⁻¹ s⁻¹.

Take B4: in series [3], the “stoichiometry N” value was 2 and 4. The Kd amounted to 299 nM in [4], 16400 nM in series [5], 49 nM in series [6] and 472 nM in series [7]. The koff is 0.00012 s⁻¹ in [4], 0.0034 s⁻¹ in series [5], 9.7e-05 s⁻¹ in series [6] and 0.0002 s⁻¹ in series [7]. Moreover, the kon in [4] is 399 M⁻¹ s⁻¹; in series [5], 220 M⁻¹ s⁻¹; in series [6], 2040 M⁻¹ s⁻¹; in series [7], 419 M⁻¹ s⁻¹.

With B5, the “stoichiometry N” value in series [8] and in series [9] was 1 each time.

In series [10], B6 had a Kd of 31.4 nM, a koff of 6.4e-05 s⁻¹ and a kon of 2060 M⁻¹ s⁻¹.
